Molecular target: rabbit muscle actin (rabbit) (UniProt P68135)
Experiment: SPR; Biacore X100; rabbit muscle actin (10 ug/ml) covalently coupled to a CM5 chip by EDC/NHS, control lane without actin subtracted; formin fragments injected at 12.3 nM to 1 uM (1:3 serial dilution), 120 s injection, 600 s dissociation, 30 ul/min, 25 degrees; running buffer 10 mM HEPES pH 7.4, 150 mM NaCl, 3 mM EDTA, 10 mM MgCl2, 0.2 mM ADP, 0.5 mM DTT

SYMBIOTIC FORMIN 1 (SYFO1) FH1FH2 domain (domain or fragment)
Kd: 0.0549 µM

From publication PMC8231094
